From patent publication US20160136295A1, “BIOMARKERS FOR TREATMENT WITH ANTI-TUBULIN CHEMOTHERAPEUTIC COMPOUNDS” (GENENTECH, INC., priority 2012, published 2016) come the findings set out here.

First the molecules themselves.
B1: MAPK13: purified recombinant kinase purchased from Invitrogen (protein, UniProt O15264 1-365, looked up)
Mitogen-activated protein …: MSLIRKKGFYKQDVNKTAWELPKTYVSPTHVGSGAYGSVCSAIDKRSGEKVAIKKLSRPFQSEIFAKRAYRELLLLKHMQHENVIGLLDVFTPASSLRNFYDFYLVMPFMQTDLQKIMGMEFSEEKIQYLVYQMLKGLKYIHSAGVVHRDLKPGNLAVNEDCELKILDFGLARHADAEMTGYVVTRWYRAPEVILSWMHYNQTVDIWSVGCIMAEMLTGKTLFKGKDYLDQLTQILKVTGVPGTEFVQKLNDKAAKSYIQSLPQTPRKDFTQLFPRASPQAADLLEKMLELDVDKRLTAAQALTHPFFEPFRDPEEETEAQQPFDDSLEHEKLTVDEWKQHIYKEIVNFSPIARKDSRRRSGMKL
B2: MAPK12: purified recombinant kinase purchased from Invitrogen (protein, UniProt P53778 1-367, looked up)
Mitogen-activated protein …: MSSPPPARSGFYRQEVTKTAWEVRAVYRDLQPVGSGAYGAVCSAVDGRTGAKVAIKKLYRPFQSELFAKRAYRELRLLKHMRHENVIGLLDVFTPDETLDDFTDFYLVMPFMGTDLGKLMKHEKLGEDRIQFLVYQMLKGLRYIHAAGIIHRDLKPGNLAVNEDCELKILDFGLARQADSEMTGYVVTRWYRAPEVILNWMRYTQTVDIWSVGCIMAEMITGKTLFKGSDHLDQLKEIMKVTGTPPAEFVQRLQSDEAKNYMKGLPELEKKDFASILTNASPLAVNLLEKMLVLDAEQRVTAGEALAHPYFESLHDTEDEPQVQKYDDSFDDVDRTLDEWKRVTYKEVLSFKPPRQLGARVSKETPL
B3: MAPK11: purified recombinant kinase purchased from Invitrogen (protein, UniProt Q15759 1-364, looked up)
Mitogen-activated protein …: MSGPRAGFYRQELNKTVWEVPQRLQGLRPVGSGAYGSVCSAYDARLRQKVAVKKLSRPFQSLIHARRTYRELRLLKHLKHENVIGLLDVFTPATSIEDFSEVYLVTTLMGADLNNIVKCQALSDEHVQFLVYQLLRGLKYIHSAGIIHRDLKPSNVAVNEDCELRILDFGLARQADEEMTGYVATRWYRAPEIMLNWMHYNQTVDIWSVGCIMAELLQGKALFPGSDYIDQLKRIMEVVGTPSPEVLAKISSEHARTYIQSLPPMPQKDLSSIFRGANPLAIDLLGRMLVLDSDQRVSAAEALAHAYFSQYHDPEDEPEAEPYDESVEAKERTLEEWKELTYQEVLSFKPPEPPKPPGSLEIEQ
B4: MAPK10: purified recombinant kinase purchased from Invitrogen (protein, UniProt P53779 1-464, looked up)
Mitogen-activated protein …: MSLHFLYYCSEPTLDVKIAFCQGFDKQVDVSYIAKHYNMSKSKVDNQFYSVEVGDSTFTVLKRYQNLKPIGSGAQGIVCAAYDAVLDRNVAIKKLSRPFQNQTHAKRAYRELVLMKCVNHKNIISLLNVFTPQKTLEEFQDVYLVMELMDANLCQVIQMELDHERMSYLLYQMLCGIKHLHSAGIIHRDLKPSNIVVKSDCTLKILDFGLARTAGTSFMMTPYVVTRYYRAPEVILGMGYKENVDIWSVGCIMGEMVRHKILFPGRDYIDQWNKVIEQLGTPCPEFMKKLQPTVRNYVENRPKYAGLTFPKLFPDSLFPADSEHNKLKASQARDLLSKMLVIDPAKRISVDDALQHPYINVWYDPAEVEAPPPQIYDKQLDEREHTIEEWKELIYKEVMNSEEKTKNGVVKGQPSPSGAAVNSSESLPPSSSVNDISSMSTDQTLASDTDSSLEASAGPLGCCR

In one test the test system is Mcl-1 S121. The experiment in a line: In vitro kinase reactions: percent phosphorylation of full-length recombinant Mcl-1 at S121. The test is classed as biochemical, human. The following applies: CDK1 + kinase panel reactions, average of INJ1 and INJ2. How it is done:
(§1) To determine the suitability of residues in Mcl-1 as kinase substrates, 10 μM of Mcl-1 was incubated with selected kinase at enzyme concentrations between 25 and 100 nM. For these reactions the Mcl-1 was dialyzed into 20 mM Phosphate, 50 mM Tris pH 7.5 150 mM NaCl, 5 mM DTT and 0.5% CHAPS. The protein solution was further supplemented with MgCl2 to 10 mM and ATP to 1 mM prior to addition of kinase. Purified recombinant kinases were purchased from Invitrogen Co. (Carlsbad, Calif.).
(§2) 10 μl of each of the Mcl-1 kinase reactions (100 pmol) were loaded onto a 4-12% Bis-Tris gel for separation by SDS-PAGE after reduction. Mcl-1 bands were excised from the gel, dehydrated (50% acetonitrile in 50 mM ammonium bicarbonate then 100% acetonitrile washes), and incubated with 0.2 μg trypsin overnight at 37° C.
(§3) Samples were injected in duplicate via autosampler onto a nanoAcquity® UPLC (Waters, Milford, Mass.) and analyzed on-line via nanospray ionization into an LTQ-Orbitrap® mass spectrometer at a concentration of 300 fmol synthetic peptide mix per injection. Areas were integrated for the isotopic and kinase phosphorylated peptides, and compared to their non-phosphorylated peptide counterparts to obtain percent phosphorylation values.
As to B1, the “Percent phosphorylation S121, AVE” value came out at 20.30%.

Consider B2, for which the “Percent phosphorylation S121, AVE” value is given as 18.12%.

For the molecule B3, the “Percent phosphorylation S121, AVE” value is 10.11%.

Regarding B4, the “Percent phosphorylation S121, AVE” value was determined as 32.85%.

Still in this test, the particulars now being: CDK1 + kinase panel reactions, sample injection 1.
For the molecule B1, the “Percent phosphorylation S121, INJ1” value is 20.33%.

With B2, the “Percent phosphorylation S121, INJ1” value is 18.73%.

Take B3: the “Percent phosphorylation S121, INJ1” value was 10.45%.

In the case of B4, the “Percent phosphorylation S121, INJ1” value is on record as 32.82%.

Staying with this test, now noted: CDK1 + kinase panel reactions, sample injection 2.
In the case of B1, the “Percent phosphorylation S121, INJ2” value is recorded as 20.26%.

With B2, the “Percent phosphorylation S121, INJ2” value was 17.51%.

On to B3, for which the “Percent phosphorylation S121, INJ2” value is 9.76%.

B4: the “Percent phosphorylation S121, INJ2” value turned out to be 32.88%.

Staying with this test, now noted: single kinase reactions, average of INJ1 and INJ2.
For B1, the “Percent phosphorylation S121, AVE” value was determined as 8.21%.

Regarding B2, the “Percent phosphorylation S121, AVE” value came out at 11.00%.

With B3, the “Percent phosphorylation S121, AVE” value is reported as 5.66%.

Turning to B4, the “Percent phosphorylation S121, AVE” value is given as 13.14%.

Still in this test, the particulars now being: single kinase reactions, sample injection 1.
In the case of B1, the “Percent phosphorylation S121, INJ1” value was found to be 10.06%.

Turning to B2, the “Percent phosphorylation S121, INJ1” value is given as 10.71%.

Consider B3, for which the “Percent phosphorylation S121, INJ1” value is recorded as 5.84%.

As to B4, the “Percent phosphorylation S121, INJ1” value was found to be 11.61%.

The same test, now with this note: single kinase reactions, sample injection 2.
As for B1, the “Percent phosphorylation S121, INJ2” value turned out to be 6.35%.

B2: the “Percent phosphorylation S121, INJ2” value worked out at 11.28%.

On to B3, for which the “Percent phosphorylation S121, INJ2” value is given as 5.48%.

For B4, the “Percent phosphorylation S121, INJ2” value was determined as 14.67%.

In another test the test system is Mcl-1 S159/T163. Briefly: In vitro kinase reactions: percent phosphorylation of full-length recombinant Mcl-1 at S159+T163. The test is classed as biochemical, human. The following applies: % phos on S159+T163, CDK1 + kinase panel reactions, average. The method, then: as §1, §2, §3
For B1, the “Percent phosphorylation S159/T163, AVE” value came to 0.56%.

Regarding B2, the “Percent phosphorylation S159/T163, AVE” value is on record as 0.00%.

As for B3, the “Percent phosphorylation S159/T163, AVE” value came out at 0.94%.

B4: the “Percent phosphorylation S159/T163, AVE” value amounted to 4.10%.

Still in this test, the particulars now being: % phos on S159+T163, CDK1 + kinase panel reactions, sample injection 1.
Regarding B1, the “Percent phosphorylation S159/T163, INJ1” value stood at 0.74%.

For B2, the “Percent phosphorylation S159/T163, INJ1” value is listed as 0.00%.

Regarding B3, the “Percent phosphorylation S159/T163, INJ1” value came out at 1.15%.

With B4, the “Percent phosphorylation S159/T163, INJ1” value worked out at 3.86%.

Staying with this test, now noted: % phos on S159+T163, CDK1 + kinase panel reactions, sample injection 2.
With B1, the “Percent phosphorylation S159/T163, INJ2” value was found to be 0.38%.

As for B2, the “Percent phosphorylation S159/T163, INJ2” value is 0.00%.

For the molecule B3, the “Percent phosphorylation S159/T163, INJ2” value was 0.73%.

In the case of B4, the “Percent phosphorylation S159/T163, INJ2” value is recorded as 4.33%.

The test is the same for the next values; noted with them: % phos on S159+T163, single kinase reactions, average.
For B1, the “Percent phosphorylation S159/T163, AVE” value was determined as 4.70%.

Take B2: the “Percent phosphorylation S159/T163, AVE” value is recorded as 0.00%.

As for B3, the “Percent phosphorylation S159/T163, AVE” value is recorded as 2.56%.

B4: the “Percent phosphorylation S159/T163, AVE” value is listed as 16.83%.

Still in this test, the particulars now being: % phos on S159+T163, single kinase reactions, sample injection 1.
As to B1, the “Percent phosphorylation S159/T163, INJ1” value was 5.77%.

In the case of B2, the “Percent phosphorylation S159/T163, INJ1” value turned out to be 0.00%.

B3: the “Percent phosphorylation S159/T163, INJ1” value was 3.06%.

Turning to B4, the “Percent phosphorylation S159/T163, INJ1” value is 16.73%.

The test is the same for the next values; noted with them: % phos on S159+T163, single kinase reactions, sample injection 2.
Turning to B1, the “Percent phosphorylation S159/T163, INJ2” value came to 3.62%.

On to B2, for which the “Percent phosphorylation S159/T163, INJ2” value came to 0.00%.

Consider B3, for which the “Percent phosphorylation S159/T163, INJ2” value turned out to be 2.06%.

In the case of B4, the “Percent phosphorylation S159/T163, INJ2” value was found to be 16.92%.

The next test relates to Mcl-1 T92. The experiment in a line: In vitro kinase reactions: percent phosphorylation of full-length recombinant Mcl-1 at T92. The test is classed as biochemical, human. To be noted: single kinase reactions, average; peak areas of 0 and 1P, triple charged state. The method, then: as §1, §2, §3
For B1, the “Percent phosphorylation T92, AVE” value worked out at 22.75%.

Take B2: the “Percent phosphorylation T92, AVE” value worked out at 69.58%.

Turning to B3, the “Percent phosphorylation T92, AVE” value was determined as 3.27%.

B4: the “Percent phosphorylation T92, AVE” value came to 9.35%.

Still in this test, the particulars now being: single kinase reactions, sample injection 1; peak areas of 0 and 1P, triple charged state.
For B1, the “Percent phosphorylation T92, INJ1” value amounted to 22.96%.

Take B2: the “Percent phosphorylation T92, INJ1” value is 71.57%.

Regarding B3, the “Percent phosphorylation T92, INJ1” value was found to be 2.59%.

In the case of B4, the “Percent phosphorylation T92, INJ1” value is recorded as 10.29%.

The test is the same for the next values; noted with them: single kinase reactions, sample injection 2; peak areas of 0 and 1P, triple charged state.
As to B1, the “Percent phosphorylation T92, INJ2” value is listed as 22.54%.

Take B2: the “Percent phosphorylation T92, INJ2” value is listed as 67.59%.

Consider B3, for which the “Percent phosphorylation T92, INJ2” value worked out at 3.95%.

On to B4, for which the “Percent phosphorylation T92, INJ2” value was found to be 8.41%.

The subject of another test is Mcl-1 T163. Briefly: In vitro kinase reactions: percent phosphorylation of full-length recombinant Mcl-1 at T163. To be noted: single kinase reactions, average of INJ1 and INJ2. The test is classed as biochemical, human. The method, then:
as §1, §2, §3
For B1, the “Percent phosphorylation T163, AVE” value is 64.78%.

For B2, the “Percent phosphorylation T163, AVE” value was 53.34%.

As for B3, the “Percent phosphorylation T163, AVE” value worked out at 51.87%.

On to B4, for which the “Percent phosphorylation T163, AVE” value is on record as 43.90%.

The same test, now with this note: single kinase reactions, sample injection 1.
In the case of B1, the “Percent phosphorylation T163, INJ1” value amounted to 65.53%.

With B2, the “Percent phosphorylation T163, INJ1” value is listed as 55.05%.

For the molecule B3, the “Percent phosphorylation T163, INJ1” value was found to be 53.70%.

In the case of B4, the “Percent phosphorylation T163, INJ1” value was 45.09%.

The same test, now with this note: single kinase reactions, sample injection 2.
Take B1: the “Percent phosphorylation T163, INJ2” value came to 64.03%.

Take B2: the “Percent phosphorylation T163, INJ2” value is listed as 51.63%.

On to B3, for which the “Percent phosphorylation T163, INJ2” value is on record as 50.04%.

As for B4, the “Percent phosphorylation T163, INJ2” value was 42.70%.
